Measurements from doi:10.1101/2020.09.18.301952.

Target: stabilized soluble SARS-CoV-2 S protein trimer (SARS-CoV-2) (UniProt P0DTC2)
Experiment: cryo-EM structure

“monomeric soluble ACE2 (ACE2_(615)) (from UniProt Q9BYF1 18-615) (domain or fragment)” was tested. Which stoichiometry N (ACE2 per S trimer) did it give?
Its stoichiometry N (ACE2 per S trimer) is 3.
